According to patent publication EP4703474A1, “ANTI-LRRC15 ANTIBODY” (priority 2023, dated 2024):

Tested on: Fibrosarcoma cell line HT-1080
Test: In vivo antitumor effect, HT-1080 subcutaneous transplant model
Conditions: 0.4 mg/kg, tail vein, on Day 7, female SCID mice
Procedure: The antitumor effects of the antibody-drug conjugates were evaluated by using animal models in which cells of a human tumor cell line had been transplanted into immunodeficient mice, or cells of a mouse tumor cell line had been transplanted into immunocompetent mice. 4 to 6 Week-old SCID mice (CB17/Icr-Prkdc[scid]/CrlCrlj, Jackson Laboratory Japan, Inc.), NSG mice (NOD.Cg-Prkdcscid Il2rgtm1Wjl/SzJ, Jackson Laboratory Japan, Inc.), or B6J mice (C57BL/6J, Jackson Laboratory Japan, Inc.) were habituated for 3 days or more under SPF conditions before experimental use. The mice were fed with sterilized solid feed and given sterilized tap water. The major and minor diameters of the transplanted tumors were measured twice a week with an electronic digital caliper (Mitutoyo Corporation), and the estimated tumor volume was calculated using the following formula. Estimated tumor volume (mm^3) = 1/2 × major diameter (mm) × [minor diameter (mm)]^2 All antibody-drug conjugates were diluted with ABS and administered into the tail vein at doses shown in each Example. In addition, ABS (vehicle) or control hIgG-PBD prepared in Reference Example 4 was administered as the control group, in a similar manner. 5 to 6 Mice were used per group in the experiment. To analyze the LRRC15 expression in mouse tumor models, immunohistochemical staining of LRRC15 was performed. […]

B1: H02L01-V1-PBD (conjugate)
heavy: EVQLVESGGGLVQPGGSLRLSCAASGFTFRDYYMAWVRQAPGKGLEWVSSIGFDESRTYYADSVKGRFTISRDDSKNTLYLQMNSLRAEDTAVYYCARHGVSKYSGDNWFAYWGQGTLVTVSSASTKGPSVFPLAPSSKSTSGGTAALGCLVKDYFPEPVTVSWNSGALTSGVHTFPAVLQSSGLYSLSSVVTVPSSSLGTQTYICNVNHKPSNTKVDKKVEPKSCDKTHTCPPCPAPEAAGGPSVFLFPPKPKDTLMISRTPEVTCVVVDVSHEDPEVKFNWYVDGVEVHNAKTKPREEQYNSTYRVVSVLTVLHQDWLNGKEYKCKVSNKALAAPIEKTISKAKGQPREPQVYTLPPSREEMTKNQVSLTCLVKGFYPSDIAVEWESNGQPENNYKTTPPVLDSDGSFFLYSKLTVDKSRWQQGNVFSCSVMHEALHNHYTQKSLSLSPGK
light: DIQMTQSPSSLSASVGDRVTITCKSSQGLLYSGDQKNYLAWYQQKPGKAPKLLIYWASTRQSGVPSRFSGSGSGTDFTLTISSLQPEDFATYYCQQYYDPPYTFGQGTKVEIKRTVAAPSVFIFPPSDEQLKSGTASVVCLLNNFYPREAKVQWKVDNALQSGNSQESVTEQDSKDSTYSLSSTLTLSKADYEKHKVYACEVTHQGLSSPVTKSFNRGEC
  antitumor effect (estimated tumor volume): antitumor activity higher than that of the vehicle and control hIgG-PBD
